Bridges are numbered along the chain shown (N, C = ends). Where no end group is shown, it is not given here. [ ]: non-standard residue; d: D form. The star is where a group is joined. Acetyl(2-(4-imidazolyl)) = O=C(Cc1c[nH]cn1)*; Aib = CC(C)(N)C(=O)O

What all share (experiment): cell-based or functional assay
In one test the target is human GLP-1 receptor (human, UniProt P43220 24-463).
The target in a further test is human GCG receptor (human, UniProt P47871 26-477).
A further test has as its target T1, human GIP receptor (human, UniProt P48546 22-466).
T1 sequence (looked up): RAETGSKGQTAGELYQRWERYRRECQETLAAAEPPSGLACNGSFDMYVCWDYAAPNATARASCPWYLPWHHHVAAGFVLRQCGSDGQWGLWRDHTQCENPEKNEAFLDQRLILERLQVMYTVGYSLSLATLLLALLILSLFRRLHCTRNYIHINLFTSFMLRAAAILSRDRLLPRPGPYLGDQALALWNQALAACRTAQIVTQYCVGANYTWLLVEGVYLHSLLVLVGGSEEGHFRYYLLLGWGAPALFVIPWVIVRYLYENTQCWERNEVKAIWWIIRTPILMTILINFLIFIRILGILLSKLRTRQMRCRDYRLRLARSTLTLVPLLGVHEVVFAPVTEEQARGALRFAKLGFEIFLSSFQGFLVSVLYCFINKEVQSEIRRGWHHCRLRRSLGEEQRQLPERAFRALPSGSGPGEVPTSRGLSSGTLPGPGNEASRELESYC

human GCG receptor, sequence (P47871 26-477): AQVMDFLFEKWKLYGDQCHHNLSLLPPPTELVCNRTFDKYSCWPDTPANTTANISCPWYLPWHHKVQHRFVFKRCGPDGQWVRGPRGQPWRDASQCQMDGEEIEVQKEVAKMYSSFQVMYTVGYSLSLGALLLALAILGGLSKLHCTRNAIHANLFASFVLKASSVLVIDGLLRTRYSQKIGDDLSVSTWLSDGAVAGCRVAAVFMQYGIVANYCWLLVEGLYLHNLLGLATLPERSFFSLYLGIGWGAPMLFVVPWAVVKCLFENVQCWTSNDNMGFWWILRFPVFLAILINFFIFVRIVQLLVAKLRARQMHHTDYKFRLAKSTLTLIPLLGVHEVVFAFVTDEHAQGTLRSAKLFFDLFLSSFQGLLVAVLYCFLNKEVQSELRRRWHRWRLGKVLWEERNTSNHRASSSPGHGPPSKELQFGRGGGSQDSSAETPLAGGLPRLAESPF

With {Acetyl(2-(4-imidazolyl))}-[Aib]QGTFTSDYSIAMDEIHQKDFVNWLLNTKC (bridge 15-19) [Triple agonist of SEQ ID NO: 94], in the test with human GLP-1 receptor, the “In vitro activity compared with native peptide (%) vs. GLP-1” value (“In vitro activity … (%) vs. GLP-1” below) was 0.5%. The “In vitro activity compared with native peptide (%) vs. Glucagon” value (shortened to “In vitro activity … (%) vs. Glucagon”) with human GCG receptor is under 0.1%. For the same molecule, the “In vitro activity compared with native peptide (%) vs. GIP” value (“In vitro activity … (%) vs. GIP” below) in the test with human GIP receptor was under 0.1%.
For Y[Aib]QGTFTSDYSKALDEKAAKDFVNWLLDHHPSSGQPPPSC (bridge 16-20) [Triple agonist of SEQ ID NO: 99], the “In vitro activity … (%) vs. GLP-1” value in the test with human GLP-1 receptor came to 20.9%. The “In vitro activity … (%) vs. Glucagon” value with human GCG receptor came out at 14.9%. In the test with human GIP receptor, the “In vitro activity … (%) vs. GIP” value is 57.7%.
The corresponding values for {Acetyl(2-(4-imidazolyl))}-[Aib]QGTFTSDYSKYLDEKRQKEFVNWLLAQC (bridge 15-19) [Triple agonist of SEQ ID NO: 86] are 28.4%, 0.4% and 0.2%.
With {Acetyl(2-(4-imidazolyl))}-[Aib]EGTFTSDYSIAMDEIHQKDFVDWLLAEKC (bridge 15-19) [Triple agonist of SEQ ID NO: 91], the “In vitro activity … (%) vs. GLP-1” value with human GLP-1 receptor is 31.9%. Further, the “In vitro activity … (%) vs. Glucagon” value in the test with human GCG receptor was found to be 16.8%. In addition, in the test with human GIP receptor, the “In vitro activity … (%) vs. GIP” value stood at 0.3%.
The corresponding values for {Acetyl(2-(4-imidazolyl))}-[Aib]EGTFTSDYSIAMDEIHQKDFVNWLLAQC (bridge 15-19) [Triple agonist of SEQ ID NO: 83] are 47.3%, 1.3% and 0.4%.
In the case of H[Aib]QGTFTSDVSKYLDGQAAQEFVAWLLAGGGPSSGAPPPSC [Triple agonist of SEQ ID NO: 10], the “In vitro activity … (%) vs. GLP-1” value with human GLP-1 receptor came out at 46%. Further, in the test with human GCG receptor, the “In vitro activity … (%) vs. Glucagon” value is under 0.1%. The “In vitro activity … (%) vs. GIP” value with human GIP receptor was under 0.1%.
For Y[Aib]QGTFTSDYSKALDEKAAKEFVNWLLDHHPSSGQPPPSC (bridge 16-20) [Triple agonist of SEQ ID NO: 98], in the test with human GLP-1 receptor, the “In vitro activity … (%) vs. GLP-1” value came to 28.1%. Moreover, in the test with human GCG receptor, the “In vitro activity … (%) vs. Glucagon” value worked out at 8.2%. Besides, the “In vitro activity … (%) vs. GIP” value with human GIP receptor was 47.1%.
In the case of {Acetyl(2-(4-imidazolyl))}-[Aib]QGTFTSDYSIAMDEIHQKDFVNWLLNTC (bridge 15-19) [Triple agonist of SEQ ID NO: 87], the “In vitro activity … (%) vs. GLP-1” value with human GLP-1 receptor amounted to 0.9%. For the same molecule, the “In vitro activity … (%) vs. Glucagon” value with human GCG receptor is under 0.1%. Moreover, the “In vitro activity … (%) vs. GIP” value with human GIP receptor was under 0.1%.
With {Acetyl(2-(4-imidazolyl))}-[Aib]QGTFTSDYSKYLDEKRQKEFVNWLLAQKC (bridge 15-19) [Triple agonist of SEQ ID NO: 93], in the test with human GLP-1 receptor, the “In vitro activity … (%) vs. GLP-1” value was 5.7%. For the same molecule, in the test with human GCG receptor, the “In vitro activity … (%) vs. Glucagon” value came to 0.3%. In the test with human GIP receptor, the “In vitro activity … (%) vs. GIP” value is 0.7%.
For H[Aib]QGTFTSDVSKYLDGQAAQEFVAWLLAGC [Triple agonist of SEQ ID NO: 9] the same measures were 32.1%, 0.13% and under 0.1%.
For Y[Aib]QGTFTSDYSKYLDEKRAKEFVQWLLCHHPSSGQPPPS (bridge 16-20) [Triple agonist of SEQ ID NO: 95] the same measures were 2.1%, 0.4% and under 0.1%.
For {Acetyl(2-(4-imidazolyl))}-[Aib]QGTFTSDYSKYLDEKRQKEFVQWLLNTKC (bridge 15-19) [Triple agonist of SEQ ID NO: 88] the same measures were 9.6%, 0.3% and under 0.1%.
For the molecule Y[Aib]QGTFTSDYSKYLDEKRAKEFVQWLLDHCPSSGQPPPS (bridge 16-20) [Triple agonist of SEQ ID NO: 96], the “In vitro activity … (%) vs. GLP-1” value in the test with human GLP-1 receptor was 34.4%. In the test with human GCG receptor, the “In vitro activity … (%) vs. Glucagon” value amounted to 195%. In the test with human GIP receptor, the “In vitro activity … (%) vs. GIP” value came out at 5.2%.
The corresponding values for {Acetyl(2-(4-imidazolyl))}-[Aib]EGTFTSDYSIAMDEIHQKDFVNWLLAQKC (bridge 15-19) [Triple agonist of SEQ ID NO: 90] are 7.4%, under 0.1% and under 0.1%.
Take {Acetyl(2-(4-imidazolyl))}-[Aib]QGTFTSDYSIAMDEIHQKDFVNWLLAQC (bridge 15-19) [Triple agonist of SEQ ID NO: 85]: the “In vitro activity … (%) vs. GLP-1” value with human GLP-1 receptor came to 4.3%. In addition, the “In vitro activity … (%) vs. Glucagon” value with human GCG receptor is under 0.1%. Moreover, the “In vitro activity … (%) vs. GIP” value with human GIP receptor was 0.3%.
Regarding {Acetyl(2-(4-imidazolyl))}-[Aib]EGTFTSDYSIAMDEIHQKDFVDWLLAEC (bridge 15-19) [Triple agonist of SEQ ID NO: 84], the “In vitro activity … (%) vs. GLP-1” value in the test with human GLP-1 receptor came out at 4.2%. Further, the “In vitro activity … (%) vs. Glucagon” value with human GCG receptor is under 0.1%. Further, in the test with human GIP receptor, the “In vitro activity … (%) vs. GIP” value was under 0.1%.
For the molecule Y[Aib]QGTFTSDYSKYLDEKRAKEFVQWLLDCHPSSGQPPPS (bridge 16-20) [Triple agonist of SEQ ID NO: 97], the “In vitro activity … (%) vs. GLP-1” value with human GLP-1 receptor was 10.5%. Also, in the test with human GCG receptor, the “In vitro activity … (%) vs. Glucagon” value came out at 62.8%. Moreover, in the test with human GIP receptor, the “In vitro activity … (%) vs. GIP” value came to 2.6%.
The corresponding values for [Acetyl(2-(4-imidazolyl))][Aib]QGTFTSDYSIAMDEIHQKDFVNWLLAQKC (bridge 16-20) [Triple agonist of SEQ ID NO: 92] are 0.8%, under 0.1% and 0.4%.
Take {Acetyl(2-(4-imidazolyl))}-[Aib]QGTFTSDYSKYLDEKRQKEFVQWLLDTKC (bridge 15-19) [Triple agonist of SEQ ID NO: 89]: in the test with human GLP-1 receptor, the “In vitro activity … (%) vs. GLP-1” value was 7.1%. In the test with human GCG receptor, the “In vitro activity … (%) vs. Glucagon” value was found to be 0.7%. Further, in the test with human GIP receptor, the “In vitro activity … (%) vs. GIP” value was under 0.1%.
As to {Acetyl(2-(4-imidazolyl))}-[Aib]QGTFTSDYSKYLDEKRQKEFVQWLLDTC (bridge 15-19) [Triple agonist of SEQ ID NO: 82], the “In vitro activity … (%) vs. GLP-1” value in the test with human GLP-1 receptor was 9.5%. Also, in the test with human GCG receptor, the “In vitro activity … (%) vs. Glucagon” value amounted to 1.1%. Also, the “In vitro activity … (%) vs. GIP” value in the test with human GIP receptor is under 0.1%.

The values above are taken from US20240024426A1, “HYPOTENSIVE PHARMACEUTICAL COMPOSITION COMPRISING TRIPLE ACTIVATOR HAVING ACTIVITY FOR ALL OF GLUCAGON, GLP-1, AND GIP RECEPTORS” (HANMI PHARM. CO., LTD., priority 2020, published 2024).
